Data from the supplement of paper PMC10126150.
± gives the standard deviation of the averaged measurements.

Each sequence was assayed on ATP (assay: switch fluorescence ratio, 500 uM ATP over buffer (Cy3 cluster intensity, sum of 5 cycles each) (fold (ratio)); higher = stronger signal-on switching upon ATP binding; sequences stand for … in TCGTCGGCAGCGTCAGATGTGTATAAGAGACAGTTTTTTTTTTTTTTTTTTTTTTTTT…TC). Conditions: aptamer strand: ATP DNA aptamer (quencher-CACCTGGGGGAGTATTGCGGAGGAAGG + anchor), 100 nM annealed; ATP concentration: 500 uM.
In short: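 The quencher-labelled ATP aptamer, at 100 nM, was annealed to Cy3-labelled switching-strand clusters on a modified Illumina MiSeq flow-cell. The clusters were imaged in selection buffer, then after 15 min with 500 uM ATP at 22 °C, and this buffer/ATP cycle ran five times with NaOH stripping and re-annealing between runs. Per-cluster fluorescence ratios, summed target-cycle over summed buffer-cycle Cy3 intensity, were averaged per switch-domain sequence. Clusters outside 100-1000 RFU were excluded.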
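Note: ATP exposure 15 min at 22 °C before imaging.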

Sequence | switch fluorescence ratio
GCAATTTCGC | 1.42 ± 0.58
GCAATTTTGT | 1.03 ± 0.015
GCACAAGATG | 1.0073 ± 0.00098
GCACATTTGC | 0.95 ± 0.079
GCACCGAAAA | 1.29 ± 0.4
GCACCGGCTA | 1.16 ± 0.23
GCACGGCGTA | 1.04 ± 0.038
GCACGGGGCT | 1.04 ± 0.018
GCACGGGGGT | 1.05 ± 0.045
GCACGTGCAG | 0.9955 ± 0.0041
GCACTCAGGA | 1.03 ± 0.04
GCACTCCAGG | 2.61 ± 0.22
GCACTCTGAG | 0.993 ± 0.029
GCACTGAAGG | 1.0196 ± 0.00041
GCAGAATTTG | 1.02 ± 0.031
GCAGAGGGCA | 1.01 ± 0.049
GCAGAGGTGG | 1.05 ± 0.037
GCAGCACGCG | 1.03 ± 0.031
GCAGCCATAA | 2.27 ± 0.16
GCAGCCGGGT | 0.991 ± 0.022
GCAGCGGGGA | 1.04 ± 0.017
GCAGCTGGCG | 1.04 ± 0.017
GCAGCTGGGT | 1.064 ± 0.0034
GCAGCTTGCA | 0.993 ± 0.018
GCAGGAAATG | 0.992 ± 0.011

Sequence | switch fluorescence ratio
GCAGGAAATT | 0.973 ± 0.014
GCAGGAGGAA | 0.991 ± 0.02
GCAGGAGTTG | 0.978 ± 0.087
GCAGGGAGCG | 0.978 ± 0.027
GCAGGGATCA | 0.9813 ± 0.0013
GCAGGGATGG | 0.985 ± 0.035
GCAGGGGATT | 1.01 ± 0.033
GCAGGGGGGA | 1.04 ± 0.05
GCAGGGGGGT | 1.01 ± 0.034
GCAGGGGTTT | 1.25 ± 0.48
GCAGGGTAAA | 0.986 ± 0.02
GCAGGGTCTG | 1.02 ± 0.083
GCAGGGTTTC | 0.997 ± 0.024
GCAGGTACGC | 1.05 ± 0.033
GCAGGTTGT | 1.009 ± 0.0021
GCAGTAATTT | 1.49 ± 0.62
GCAGTATAAT | 0.9932 ± 0.0099
GCAGTATGCT | 1.01 ± 0.062
GCAGTATTTG | 0.99057 ± 2.4e-05
GCAGTCCGTC | 1.06 ± 0.019
GCAGTGGGTA | 0.978 ± 0.016
GCAGTTAATC | 1.05 ± 0.026
GCAGTTGTGT | 0.9941 ± 0.0058
GCAGTTGTTC | 0.981 ± 0.037
GCAGTTTGGC | 1.01 ± 0.057

Sequence | switch fluorescence ratio
GCAGTTTTTG | 0.9746 ± 0.0056
GCATAATTTA | 0.9898 ± 0.0096
GCATAGGGGG | 1.03 ± 0.081
GCATATAAAC | 1.2 ± 0.17
GCATATGGCT | 1 ± 0.031
GCATATGTCG | 1.097 ± 0.0042
GCATCACGTA | 1.17 ± 0.024
GCATCAGGCG | 1.01 ± 0.02
GCATCGGGGG | 0.981 ± 0.037
GCATCTAGAT | 0.986 ± 0.018
GCATGAAACT | 1.03 ± 0.034
GCATGCGGTC | 1.01 ± 0.027
GCATGGAAAT | 0.985 ± 0.045
GCATGGTAGC | 0.994 ± 0.037
GCATGTAGTG | 0.9794 ± 0.005
GCATGTATAG | 1.015 ± 0.0046
GCATGTCGAT | 1.02 ± 0.023
GCATGTCTGC | 0.9862 ± 0.0093
GCATTAGTTT | 1.04 ± 0.012
GCATTATGTT | 0.987 ± 0.044
GCATTATTCG | 1.059 ± 0.0079
GCATTATTTG | 1.05 ± 0.02
GCATTCAGGG | 1.09 ± 0.14
GCATTCGGCT | 1.04 ± 0.069
GCATTCGGTT | 0.972 ± 0.039

Sequence | switch fluorescence ratio
GCATTCTCGT | 1.029 ± 0.0021
GCATTGAGGG | 1.04 ± 0.047
GCATTGGTAT | 0.981 ± 0.011
GCATTGTAGG | 0.972 ± 0.041
GCATTTCTTC | 1.03 ± 0.04
GCATTTGGTC | 1.01 ± 0.023
GCATTTTGAA | 1.02 ± 0.026
GCCAAACGGG | 1.13 ± 0.16
GCCAAAGCGG | 0.997 ± 0.014
GCCAACAGTG | 1.32 ± 0.12
GCCAATGGGG | 0.989 ± 0.026
GCCAATTAAT | 1.01 ± 0.012
GCCACAAATT | 1.01 ± 0.033
GCCAGCGTCC | 1.62 ± 0.83
GCCAGGCATT | 0.989 ± 0.05
GCCAGTGCTG | 1.017 ± 0.0069
GCCATAATTA | 0.981 ± 0.018
GCCATAGGAG | 0.987 ± 0.031
GCCATATGTG | 1.02 ± 0.015
GCCATGGTTG | 1.04 ± 0.067
GCCATGTGAA | 1.004 ± 0.0084
GCCATTTATT | 0.977 ± 0.024
GCCCAATAAG | 1.03 ± 0.025
GCCCATGGGT | 1.07 ± 0.12
GCCCATTGTG | 1.2 ± 0.072
